{
  "source": "patent US20190136256",
  "proteins": {"B1": {"name": "HA-tagged TDP1 (HA-TDP1) (protein)", "chain": "MAHSQVAYLIPLKADLKEDNSSPRITLSEGPNIIGRGNVSIVDKRLSRKHITIIVSTSGSASLSVDGTNPVVIRSSGDGERKKVKPSEEVSVCNDDLIELIPGHHFFKLVLLNGRAAKKARKAEDDVEAIRRFCPPNEKLPSTFRLLSVDALPDWANTSCVSINDVIEGDVVAAILSNYMVDIDWLMSACPKLANIPQVMVIHGEGDGRQEYIQRKKPANWILHKPRLPISFGTHHSKAIFLVYPRGVRVVVHTANLIHVDWNNKSQGLWMQDFPWKDDDKDPPKGCGFEGDLIDYLNVLKWPEFTANLPGRGNVKINAAFFKKFDYSDATVRLIASVPGYHTGFNLNKWGHMKLRTILQECIFDREFRRSPLIYQFSSLGSLDEKWLAEFGNSLSSGITEDKTPLGPGDSLIIWPTVEDVRCSLEGYAAGNAIPSPLKNVEKPFLKKYWARWKADHSARGRAMPHIKTFTRYNDQKIAWFLLTSSNLSKAAWGALQKNNSQLMIRSYELGVLFLPSPIKTQGCVFSCTESNPSVMKAKQETKDEVEKRSKLVTMTWQGDRDLPEIISLPVPYQLPPKPYSPEDVPWSWDRGYSKKDVYGQVWPR"}},
  "molecular_target": "T1, Myc tagged AN (AN-Myc)",
  "T1 chain": "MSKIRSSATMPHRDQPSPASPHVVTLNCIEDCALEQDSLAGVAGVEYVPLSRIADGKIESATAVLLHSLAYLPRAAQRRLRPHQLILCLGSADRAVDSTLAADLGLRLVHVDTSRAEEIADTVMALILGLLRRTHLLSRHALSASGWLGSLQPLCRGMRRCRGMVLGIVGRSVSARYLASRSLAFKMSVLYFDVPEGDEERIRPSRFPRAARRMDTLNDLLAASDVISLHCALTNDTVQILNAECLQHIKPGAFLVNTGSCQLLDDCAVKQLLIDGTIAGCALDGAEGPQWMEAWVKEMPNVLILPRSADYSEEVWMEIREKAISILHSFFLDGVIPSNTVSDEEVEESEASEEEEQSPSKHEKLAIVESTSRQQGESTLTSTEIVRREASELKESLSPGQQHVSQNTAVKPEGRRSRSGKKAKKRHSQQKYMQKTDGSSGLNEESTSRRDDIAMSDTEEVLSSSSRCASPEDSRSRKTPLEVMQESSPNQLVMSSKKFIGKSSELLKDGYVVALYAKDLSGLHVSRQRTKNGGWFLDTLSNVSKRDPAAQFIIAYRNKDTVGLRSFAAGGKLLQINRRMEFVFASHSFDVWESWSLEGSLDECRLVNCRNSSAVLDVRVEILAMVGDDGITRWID",
  "data": [
    {"protein": "B1", "values": [
      {"measurement": "µChIP-qPCR: association of AN with MYB46 promoter", "result": "the chromatin association of AN with MYB46 promoter was significantly increased (p<0.05) in vivo when co-expressed with TDP1"}
    ]}
  ]
}
